B1: Adapter protein MecA 1 (Bacillus subtilis), P37958 (parent)
chain: MEIERINEHTVKFYMSYGDIEDRGFDREEIWYNRERSEELFWEVMDEVHEEEEFAVEGPLWIQVQALDKGLEIIVTKAQLSKDGQKLELPIPEDKKQEPASEDLDALLDDFQKEEQAVNQEEKEQKLQFVLRFGDFEDVISLSKLNVNGSKTTLYSFENRYYLYVDFCNMTDEEVENQLSILLEYATESSISIHRLEEYGKLIISEHALETIKKHFAS
partner: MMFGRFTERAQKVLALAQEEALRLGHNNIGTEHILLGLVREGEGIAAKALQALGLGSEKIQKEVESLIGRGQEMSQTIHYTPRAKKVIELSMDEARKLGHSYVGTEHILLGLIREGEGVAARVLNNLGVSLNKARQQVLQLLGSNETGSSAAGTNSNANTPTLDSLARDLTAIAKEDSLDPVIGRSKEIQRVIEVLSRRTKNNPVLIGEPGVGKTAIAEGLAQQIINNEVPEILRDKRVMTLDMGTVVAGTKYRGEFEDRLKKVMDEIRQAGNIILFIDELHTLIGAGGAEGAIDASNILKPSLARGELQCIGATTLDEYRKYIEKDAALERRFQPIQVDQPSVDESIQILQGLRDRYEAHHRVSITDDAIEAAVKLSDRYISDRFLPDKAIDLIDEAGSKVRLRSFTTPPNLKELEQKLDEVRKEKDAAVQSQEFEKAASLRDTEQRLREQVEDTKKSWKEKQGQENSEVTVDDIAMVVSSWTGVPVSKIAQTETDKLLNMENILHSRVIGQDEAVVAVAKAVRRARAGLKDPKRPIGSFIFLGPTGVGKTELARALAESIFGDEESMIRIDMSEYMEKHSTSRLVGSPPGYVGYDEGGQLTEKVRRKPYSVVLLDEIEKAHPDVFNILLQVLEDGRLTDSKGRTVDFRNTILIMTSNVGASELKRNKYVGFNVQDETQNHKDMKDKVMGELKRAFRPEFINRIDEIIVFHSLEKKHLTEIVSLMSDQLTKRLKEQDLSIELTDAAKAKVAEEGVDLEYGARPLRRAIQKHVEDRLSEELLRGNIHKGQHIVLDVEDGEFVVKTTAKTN

Variants of: B1
Conditions: with clpc_bacsu clpC

| Variant | effect of a mutation on the interaction |
| --- | --- |
| MEIERINEHTVKFYMSYGDIEDRGFDREEIWYNRERSEELFWEVMDEVHEEEEFAVEGPLWIQVQALDKGLEIIVTKAQLSKDGQKLELPIPEDKKQEPASEDLDALLDDFQKEEQAVNQEEKEQKLQFVLRFGDFEDVISLSKLNVNGSKTTLYSFENRYYLYVDFCNMTDEEVENQLSILLRYATESSISIHRLEEYGKLIISEHALETIKKHFAS [E184R] | disrupting interaction |
